Our source for the Km values is article PMC3873549, “Plant Acyl-CoA:Lysophosphatidylcholine Acyltransferases (LPCATs) Have Different Specificities in Their Forward and Reverse Reactions” (The Journal of Biological Chemistry, 2013).

Substrate in this data set: CCCCCCCC/C=C\CCCCCCCC(=O)SCCNC(=O)CCNC(=O)[C@H](O)C(C)(C)COP(=O)(O)OP(=O)(O)OC[C@H]1O[C@@H](n2cnc3c(N)ncnc32)[C@H](O)[C@@H]1OP(=O)(O)O
Kind of data set: cells, lysate or membranes. It is filed as cell-based, Arabidopsis thaliana. To be noted: acyl acceptor sn-1-18:1-LPC, pH 7.2, 30 °C, labelled compound.

B1: AtLPCAT1 (Arabidopsis thaliana) (protein)
chain: MDMSSMAGSIGVSVAVLRFLLCFVATIPVSFACRIVPSRLGKHLYAAASGAFLSYLSFGFSSNLHFLVPMTIGYASMAIYRPKCGIITFFLGFAYLIGCHVFYMSGDAWKEGGIDSTGALMVLTLKVISCSMNYNDGMLKEEGLREAQKKNRLIQMPSLIEYFGYCLCCGSHFAGPVYEMKDYLEWTEGKGIWDTTEKRKKPSPYGATIRAILQAAICMALYLYLVPQYPLTRFTEPVYQEWGFLRKFSYQYMAGFTARWKYYFIWSISEASIIISGLGFSGWTDDASPKPKWDRAKNVDILGVELAKSAVQIPLVWNIQVSTWLRHYVYERLVQNGKKAGFFQLLATQTVSAVWHGLYPGYMMFFVQSALMIAGSRVIYRWQQAISPKMAMLRNIMVFINFLYTVLVLNYSAVGFMVLSLHETLTAYGSVYYIGTIIPVGLILLSYVVPAKPSRPKPRKEE
Regarding B1, the Km came to 18 µM.

Usually Km stands for the concentration of substrate that gives half-maximal velocity.
